Reference: paper PMC9239242

Target: E. coli RNA polymerase holoenzyme (native) (E. coli) (UniProt P0A8V2)

P2 Orf82 (Orf82 from Enterobacteria phage P2) (natural protein)
IC50 for inhibition of rrnB P1 transcription, multiround in vitro transcription with E. coli RNAP (4 nM to 2,000 nM factor): 250 nM
